Literature values as cited in publication PMC12521419.
pKd: −log10 of the molar value.

What was measured:
[1] = system: LMBV virion (largemouth bass virus particle; binding protein not identified) (Largemouth bass virus (genus Ranavirus, family Iridoviridae), isolated from diseased largemouth bass, propagated in FHM cells); test: not stated for truncated form (ELASA stated for parent LA38); details: PBS, aptamers 500 nM each with LMBV in 100 uL for 1 h (temperature not stated); streptavidin beads 4 C 30 min; washes PBS + 0.1% Tween-20; SDA 37 C 30 min …
[2] = system: LMBV virion (largemouth bass virus particle; binding protein not identified) (Largemouth bass virus (genus Ranavirus, family Iridoviridae), isolated from diseased largemouth bass, propagated in FHM cells); test: not stated for truncated form (ELASA stated for parent LA13); details: PBS, aptamers 500 nM each with LMBV in 100 uL for 1 h (temperature not stated); streptavidin beads 4 C 30 min; washes PBS + 0.1% Tween-20; SDA 37 C 30 min …

| Sequence | pKd [1] | pKd [2] |
| --- | --- | --- |
| GCCGGCCCGGGGGATAGAGTGCTCCCGATCCCTTGGCGAAGGGAC [LA38s] | 8.47 | – |
| TTTTGACGCTTTATCCTTTTCTTATGGCGGGATAGTTTCG [LA13s] | – | 8.63 |
